Assay results from paper PMC4529466, “Intradermal insulin infusion achieves faster insulin action than subcutaneous infusion for 3-day wear” (Drug Delivery and Translational Research, 2015).

Test: Postprandial serum insulin aspart pharmacokinetics after meal bolus, 3-day ID vs SC infusion
Format: in vivo, human (T1DM patients)
Settings: for ΔAUCIns0−1: 0–1 h; for ΔAUCIns0−1 / ΔAUCIns0–1.5 / ΔAUCIns0–2 / ΔAUCIns0–4 / T50_max_falling / T50_max_rising / Tmax / ΔCmax: mean ± SD; for ΔAUCIns0–1.5: 0–1.5 h; for ΔAUCIns0–2: 0–2 h; for ΔAUCIns0–4: 0–4 h; for Intra-subject variability of Tmax: across all study days and breakfast and lunch meals
Text: This was a single center, open-label, two-period crossover study, randomized by infusion order, in T1DM patients on continuous subcutaneous insulin infusion (CSII). The protocol was approved by an independent ethics committee (Ethikkommission der Ärztekammer Nordrhein, Düsseldorf, Germany), appropriate regulatory bodies (German Federal Institute for Drugs and Medical Devices (BfArM)), and conducted in compliance with good clinical practice (GCP), the Declaration of Helsinki, and applicable regulatory requirements.
The study was completed over a multi-week period consisting of three study visits: a screening visit (V1) and two interventional visits (V2 and V3). After establishing eligibility and enrollment, patients received treatment during two interventional visits: one SC and one ID basal/bolus infusion of insulin aspart (NovoRapid® U-100, Novo Nordisk, Copenhagen, Denmark) administered over 3 days in a randomized order.
For each dosing visit, patients arrived the evening prior to the first standardized meal to verify compliance with protocol criteria. An intravenous catheter was inserted into a peripheral vein of the arm for manual blood sampling. Infusion sets, ID (34 G × 1.5 mm length stainless steel microneedle catheter set, BD Technologies, Research Triangle Park, NC) or SC (25 G × 6 mm length soft cannula, Quick-Set, Medtronic Minimed, Northridge, CA), were connected to an insulin infusion pump (Animas® Vibe™, Animas Corporation, West Chester, PA) and primed according to the manufacturer’s instructions. Sets were placed into the patient’s abdomen (periumbilical, left or right) using a customized applicator for the ID set, or the manufacturer recommended inserter for the SC set (customized Sof-serter® and Quick-serter® respectively, both Medtronic Minimed, Northridge, CA). Due to the small adhesive surface on the microneedle catheter, a modified IV dressing (IV3000 1-Hand, Smith & Nephew, England) was used for additional securement over the catheter. A safety loop was used on all catheter lines as recommended by general insulin pump user guidance (Fig. 1c). The respective infusion sets provided all basal and bolus insulin delivery of insulin aspart for the duration of each 72-h study period. A fluid pressure transducer (BD-DTX™ Plus, Becton Dickinson, Franklin Lakes, NJ) was connected in-line between the pump reservoir and each infusion set to monitor infusion delivery pressure, with automated data capture via a commercial data logging system (LORD MicroStrain®, Williston, VT) to provide a secondary post hoc measure of delivery status. The pump/pressure monitoring system combination was contained in a waist pack for the duration of delivery due to its potentially cumbersome size.
After maintaining targeted blood glucose range during the preceding night, bolus insulin doses were administered via the respective infusion catheter prior to standardized breakfast and lunch test meals on each of the three treatment days. Each meal insulin bolus was calculated based on the patient’s insulin sensitivity and previous hours change in BG per sliding scale then delivered immediately prior to breakfast (t = 0 min) and lunch (t = 360 min) consumption. Breakfast was a high glycemic index (60 g carbohydrates) solid meal, and lunch was a mixed meal based on the individual’s calculated daily energy intake and equivalent in caloric composition by day. Breakfast and lunch meals were consumed within 15 min followed by serial blood sampling with BG monitoring for a period of 6 and 4 h, respectively. Patients were asked to remain sedentary for 2 h after meals. Identical study procedures were utilized for the remaining dosing visit days (Fig. 2).
To assess insulin absorption kinetics and glycemic response, blood samples for measurements of insulin aspart and blood glucose in serum were drawn at predefined time points throughout dosing visits. Serial samples for safety BG determination, but not PK analysis, were obtained at a minimum every 2 h. […]

[1] = ID infusion, Day 1, across meals
[2] = ID infusion, Day 2, across meals
[3] = ID infusion, Day 3, across meals
[4] = ID infusion, Days 1–3 combined, across meals, n = 141–156
[5] = SC infusion, Day 1, across meals
[6] = SC infusion, Day 2, across meals
[7] = SC infusion, Day 3, across meals
[8] = SC infusion, Days 1–3 combined, across meals, n = 141–156

## insulin aspart
ID bolus vs SC
  reduction of Tmax compared to the respective SC delivery: greater than 40%
ID bolus vs SC, p < 0.0001
  decrease of T50_max_falling, ID vs SC: ~25%
  decrease of T50_max_rising, ID vs SC: ~ 50%
[1]
  ΔAUCIns0−1: 39.5 ± 31.4 mU*h/L
  ΔAUCIns0–1.5: 56.6 ± 46.4 mU*h/L
  ΔAUCIns0–2: 68.5 ± 59.0 mU*h/L
  ΔAUCIns0–4: 86.9 ± 85.8 mU*h/L
  T50_max_falling: 108 ± 39.2 min
  T50_max_rising: 5.7 ± 2.2 min
  Tmax: 27.6 ± 13.9 min
  ΔCmax: 54.5 ± 42.1 mU/L
[2]
  ΔAUCIns0−1: 43.7 ± 36 mU*h/L
  ΔAUCIns0–1.5: 61.6 ± 54.0 mU*h/L
  ΔAUCIns0–2: 74.0 ± 67.8 mU*h/L
  ΔAUCIns0–4: 92.3 ± 94.5 mU*h/L
  T50_max_falling: 106 ± 32.6 min
  T50_max_rising: 5.8 ± 2.6 min
  Tmax: 29.1 ± 13.3 min
  ΔCmax: 58.6 ± 47.0 mU/L
[3]
  ΔAUCIns0−1: 44.8 ± 37.4 mU*h/L
  ΔAUCIns0–1.5: 62.8 ± 55.6 mU*h/L
  ΔAUCIns0–2: 75.7 ± 71.2 mU*h/L
  ΔAUCIns0–4: 94.4 ± 103 mU*h/L
  T50_max_falling: 107 ± 36.7 min
  T50_max_rising: 6.4 ± 2.3 min
  Tmax: 29.1 ± 12.5 min
  ΔCmax: 61.2 ± 51.5 mU/L
[4]
  ΔAUCIns0−1: 42.5 ± 34.7 mU*h/L
  ΔAUCIns0–1.5: 60.2 ± 51.6 mU*h/L
  ΔAUCIns0–2: 72.5 ± 65.5 mU*h/L
  ΔAUCIns0–4: 91.0 ± 93.5 mU*h/L
  T50_max_falling: 107 ± 36.1 min
  T50_max_rising: 6.0 ± 2.4 min
  Tmax: 28.5 ± 13.2 min
ID infusion, Days 1–3 combined, across meals, baseline corrected, n = 141–156
  ΔCmax: 57.9 ± 46.5 mU/L
ID
  Intra-subject variability of Tmax: 29.6 %CV
ID, across meals and days
  intra-subject Tmax variability measured by %CV: 30%
[5]
  ΔAUCIns0−1: 29.9 ± 25.3 mU*h/L
  ΔAUCIns0–1.5: 45.9 ± 38.9 mU*h/L
  ΔAUCIns0–2: 57.8 ± 50.9 mU*h/L
  ΔAUCIns0–4: 77.4 ± 76.2 mU*h/L
  T50_max_falling: 135 ± 51.1 min
  T50_max_rising: 13.2 ± 7.9 min
  Tmax: 46.0 ± 28.4 min
  ΔCmax: 47.4 ± 37.5 mU/L
[6]
  ΔAUCIns0−1: 30.6 ± 21.1 mU*h/L
  ΔAUCIns0–1.5: 48.7 ± 35.9 mU*h/L
  ΔAUCIns0–2: 62.6 ± 49.6 mU*h/L
  ΔAUCIns0–4: 85.7 ± 82.3 mU*h/L
  T50_max_falling: 143 ± 44.1 min
  T50_max_rising: 12.0 ± 9.5 min
  Tmax: 50.1 ± 19.7 min
  ΔCmax: 47.2 ± 34.8 mU/L
[7]
  ΔAUCIns0−1: 33.6 ± 25.7 mU*h/L
  ΔAUCIns0–1.5: 52.8 ± 42.5 mU*h/L
  ΔAUCIns0–2: 66.7 ± 57.0 mU*h/L
  ΔAUCIns0–4: 87.7 ± 86.9 mU*h/L
  T50_max_falling: 136 ± 39.5 min
  T50_max_rising: 11.2 ± 5.0 min
  Tmax: 47.1 ± 18.3 min
  ΔCmax: 51.5 ± 40.8 mU/L
[8]
  ΔAUCIns0−1: 31.3 ± 24 mU*h/L
  ΔAUCIns0–1.5: 49.0 ± 39.0 mU*h/L
  ΔAUCIns0–2: 62.2 ± 52.3 mU*h/L
  ΔAUCIns0–4: 83.4 ± 81.3 mU*h/L
  T50_max_falling: 138 ± 45.1 min
  T50_max_rising: 12.2 ± 7.7 min
  Tmax: 47.7 ± 22.8 min
SC infusion, Days 1–3 combined, across meals, baseline corrected, n = 141–156
  ΔCmax: 48.7 ± 37.6 mU/L
SC
  Intra-subject variability of Tmax: 36.7 %CV
SC, across meals and days
  intra-subject Tmax variability measured by %CV: 37%
Across days
  Tmax shortening, ID vs SC: ~ 19 min
  time reduction of T50%maxfalling, ID vs SC: ~31 min
  time reduction of T50%maxrising, ID vs SC: ~ 6 min
Across meals and days
  less intra-subject variability (%CV), ID compared to SC: ~ 7%
